Reference: patent US9802997B2, “Peptides and combination of peptides for use in immunotherapy against various tumors” (immatics biotechnologies GmbH, priority 2015, dated 2017)

target: HLA-A*02:01 (Homo sapiens, UniProt P04439, D140Y/D185E/D98H/E176V/E277Q/G131W/G231S/I119V/I121R/I166T/I218V/L300P/L318F/N151K/N90K/P208A/P217A/Q86G/Q94H/R138H/R169H/T345S); assay: MHC binding assay (UV-ligand exchange, beta2m ELISA); details: binding to HLA-A*02:01, β2m ELISA
Text: Candidate peptides for T cell based therapies according to the present invention were further tested for their MHC binding capacity (affinity). The individual peptide-MHC complexes were produced by UV-ligand exchange, where a UV-sensitive peptide is cleaved upon UV-irradiation, and exchanged with the peptide of interest as analyzed. Only peptide candidates that can effectively bind and stabilize the peptide-receptive MHC molecules prevent dissociation of the MHC complexes. To determine the yield of the exchange reaction, an ELISA was performed based on the detection of the light chain (β2m) of stabilized MHC complexes. The assay was performed as generally described in Rodenko et al. (Rodenko et al., 2006).
96 well MAXISorp plates (NUNC) were coated over night with 2 ug/ml streptavidin in PBS at room temperature, washed 4× and blocked for 1 h at 37° C. in 2% BSA containing blocking buffer. Refolded HLA-A*02:01/MLA-001 monomers served as standards, covering the range of 15-500 ng/ml. Peptide-MHC monomers of the UV-exchange reaction were diluted 100 fold in blocking buffer. Samples were incubated for 1 h at 37° C., washed four times, incubated with 2 ug/ml HRP conjugated anti-β2m for 1 h at 37° C., washed again and detected with TMB solution that is stopped with […]. Absorption was measured at 450 nm. Candidate peptides that show a high exchange yield (preferably higher than 50%, most preferred higher than 75%) are generally preferred for a generation and production of antibodies or fragments thereof, and/or T cell receptors or fragments thereof, as they show sufficient avidity to the MHC molecules and prevent dissociation of the MHC complexes.

Row | Substance | Peptide exchange (MHC class I binding score, peptide exchange yield)
1 | 24 (KVWSDVTPL; listed as Homo sapiens) [compound 24] | +++ (≧50 = +++)
2 | 47 (GLNGFNVLL; listed as Homo sapiens) [compound 47] | +++ (≧50 = +++)
3 | 159 (QLGPVPVTI; listed as Homo sapiens) [compound 159] | +++ (≧50 = +++)
4 | 37 (QIVELIEKI; listed as Homo sapiens) [compound 37] | ++ (≧20% = ++)
5 | 113 (FLFLKEVKV; listed as Homo sapiens) [compound 113] | ++ (≧20% = ++)
6 | 133 (FLDGRPLTL; listed as Homo sapiens) [compound 133] | ++ (≧20% = ++)
7 | 51 (LDSEALLTL; listed as Homo sapiens) [compound 51] | ++ (≧20% = ++)
8 | 21 (YLMDDFSSL; listed as Homo sapiens) [compound 21] | +++ (≧50 = +++)
9 | 138 (GIINKLVTV; listed as Homo sapiens) [compound 138] | ++ (≧20% = ++)
10 | 55 (HLFDKIIKI; listed as Homo sapiens) [compound 55] | +++ (≧50 = +++)
11 | 28 (IKVTDPQLLEL; listed as Homo sapiens) [compound 28] | ++ (≧20% = ++)
12 | 63 (KLLPMVIQL; listed as Homo sapiens) [compound 63] | +++ (≧50 = +++)
13 | 126 (QLREAFEQL; listed as Homo sapiens) [compound 126] | +++ (≧50 = +++)
14 | 38 (VLQQESNFL; listed as Homo sapiens) [compound 38] | ++ (≧20% = ++)
15 | 111 (AQLEGKLVSI; listed as Homo sapiens) [compound 111] | +++ (≧50 = +++)
16 | 75 (ALLDGALQL; listed as Homo sapiens) [compound 75] | +++ (≧50 = +++)
17 | 82 (ILAEEPIYIRV; listed as Homo sapiens) [compound 82] | +++ (≧50 = +++)
18 | 13 (RLHDENILL; listed as Homo sapiens) [compound 13] | +++ (≧50 = +++)

Row | Substance | Peptide exchange (MHC class I binding score, peptide exchange yield)
19 | 95 (KLIDEDEPLFL; listed as Homo sapiens) [compound 95] | +++ (≧50 = +++)
20 | 67 (FLIENLLAA; listed as Homo sapiens) [compound 67] | +++ (≧50 = +++)
21 | 57 (TLYPGRFDYV; listed as Homo sapiens) [compound 57] | ++ (≧20% = ++)
22 | 158 (YLDPLWHQL; listed as Homo sapiens) [compound 158] | +++ (≧50 = +++)
23 | 129 (KMASKVTQV; listed as Homo sapiens) [compound 129] | ++ (≧20% = ++)
24 | 85 (KLLDKPEQFL; listed as Homo sapiens) [compound 85] | ++ (≧20% = ++)
25 | 150 (VLLDMVHSL; listed as Homo sapiens) [compound 150] | +++ (≧50 = +++)
26 | 31 (GLLETTGLLAT; listed as Homo sapiens) [compound 31] | +++ (≧50 = +++)
27 | 26 (VLDGKVAVV; listed as Homo sapiens) [compound 26] | +++ (≧50 = +++)
28 | 59 (ALADGIKSFLL; listed as Homo sapiens) [compound 59] | +++ (≧50 = +++)
29 | 36 (TVLQELINV; listed as Homo sapiens) [compound 36] | +++ (≧50 = +++)
30 | 110 (QIQGQVSEV; listed as Homo sapiens) [compound 110] | ++ (≧20% = ++)
31 | 151 (DISKRIQSL; listed as Homo sapiens) [compound 151] | ++ (≧20% = ++)
32 | 71 (HMSGKLTNV; listed as Homo sapiens) [compound 71] | ++ (≧20% = ++)
33 | 142 (LLDAAHASI; listed as Homo sapiens) [compound 142] | ++ (≧20% = ++)
34 | 19 (KVFELDLVTL; listed as Homo sapiens) [compound 19] | ++ (≧20% = ++)
35 | 92 (RLFEEVLGV; listed as Homo sapiens) [compound 92] | ++++ (≧75% = ++++)

The next lines start with the values.

Row | Peptide exchange (MHC class I binding score, peptide exchange yield) | Substance
36 | +++ (≧50 = +++) | 210 (GLAGDNIYL; listed as Homo sapiens) [compound 210]
37 | +++ (≧50 = +++) | 213 (ILAVDGVLSV; listed as Homo sapiens) [compound 213]
38 | ++ (≧20% = ++) | 184 (ALDSTIAHL; listed as Homo sapiens) [compound 184]
39 | +++ (≧50 = +++) | 193 (ALFHMNILL; listed as Homo sapiens) [compound 193]
40 | ++ (≧20% = ++) | 176 (VQSGLRILL; listed as Homo sapiens) [compound 176]
41 | +++ (≧50 = +++) | 244 (NVAEIVIHI; listed as Homo sapiens) [compound 244]
42 | +++ (≧50 = +++) | 265 (FLLDKPQDLSI; listed as Homo sapiens) [compound 265]
43 | ++ (≧20% = ++) | 194 (KLLEEVQLL; listed as Homo sapiens) [compound 194]
44 | +++ (≧50 = +++) | 200 (IMPTFDLTKV; listed as Homo sapiens) [compound 200]
45 | ++ (≧20% = ++) | 284 (KLMDPGSLPPL; listed as Homo sapiens) [compound 284]
46 | +++ (≧50 = +++) | 230 (KLLNMIFSI; listed as Homo sapiens) [compound 230]
47 | ++ (≧20% = ++) | 273 (SLNKQIETV; listed as Homo sapiens) [compound 273]
48 | +++ (≧50 = +++) | 237 (ALLEQTGDMSL; listed as Homo sapiens) [compound 237]
49 | ++ (≧20% = ++) | 170 (FIAAVVEKV; listed as Homo sapiens) [compound 170]
50 | ++ (≧20% = ++) | 208 (HLNNDRNPL; listed as Homo sapiens) [compound 208]
51 | ++ (≧20% = ++) | 243 (GLAEFQENV; listed as Homo sapiens) [compound 243]
52 | +++ (≧50 = +++) | 276 (RMPTVLQCV; listed as Homo sapiens) [compound 276]
53 | +++ (≧50 = +++) | 179 (TLGEIIKGV; listed as Homo sapiens) [compound 179]
54 | +++ (≧50 = +++) | 190 (SLSTELFKV; listed as Homo sapiens) [compound 190]
55 | ++ (≧20% = ++) | 247 (NLLIDDKGTIKL; listed as Homo sapiens) [compound 247]
56 | +++ (≧50 = +++) | 225 (FLPQPVPLSV; listed as Homo sapiens) [compound 225]
57 | +++ (≧50 = +++) | 249 (YLYQILQGI; listed as Homo sapiens) [compound 249]
58 | ++ (≧20% = ++) | 185 (TLYQGLPAEV; listed as Homo sapiens) [compound 185]
59 | ++ (≧20% = ++) | 279 (VLMDEGAVLTL; listed as Homo sapiens) [compound 279]
60 | +++ (≧50 = +++) | 250 (LMQDSRLYL; listed as Homo sapiens) [compound 250]
61 | ++ (≧20% = ++) | 216 (ALSTVTPRI; listed as Homo sapiens) [compound 216]
62 | ++ (≧20% = ++) | 198 (ILTNKVVSV; listed as Homo sapiens) [compound 198]
